We go through one substance from paper PMC6416295.

Data set [1] has as its system HlyU (Vibrio vulnificus MO6-24/O). Put plainly: EMSA. The settings on record: 10 mM Tris-Cl pH 7.5, 50 mM KCl, 5 mM MgCl2, 5% glycerol, 0.1 ug poly(dI-dC) in 20 ul, 5 nM DNA, 25 C, 0.5 h; 6% native PAGE.
Data set [2] has the same test system. The data set can be described thus: EMSA. The settings on record: 10 mM Tris-Cl pH 7.5, 50 mM KCl, 5 mM MgCl2, 5% glycerol, 0.1 ug poly(dI-dC) in 20 ul, 5 nM DNA, 25 C, 0.5 h; 6% native PAGE. This is another data set of the same source. Background: Mobility shift assays separate free from complexed probe on a gel.

What is called Kd is the constant that tells how readily two partners part at equilibrium. High values mean a looser complex, low ones a tighter complex.

Turning to PrtxA 264-bp, the figures for the Kd in data set [1] and in data set [2] were 0.0252 µM and 0.0548 µM, respectively.
